The values that follow come from US20190055314A1 (ADAGENE, published 2019).

As a reminder, the Kd is the free concentration of one partner at which half of the binding sites on the other are occupied at equilibrium, for simple one-to-one binding. One may read the koff as the rate constant with which the complex falls apart. What is called kon is the rate constant with which the complex forms.

The target of experiment [1] is T1, human CD137-His6 (Sino Biological #10041-H08H) (human, UniProt Q07011 24-186).
T1 construct: Bought; also called human CD137 protein; not shown: His6 tag
Kind of experiment: SPR Biacore, IgG. (SPR reads the build-up and loss of mass on a sensor chip optically.)

A further experiment addresses T2, Hu_CRD2-CRD3-CRD4 (human, UniProt Q07011 46-159, limits assumed).
T2 construct: also called three CRD units (CRD2-CRD3-CRD4) of human CD137
In words: flow cytometry, yeast display [Cont.]. Background: Flow cytometry measures light scatter and fluorescence of single cells or particles in a stream.

The target of the next experiment is T3, Hu_CRD1-CRD2-CRD3 (human, UniProt Q07011 24-118, limits assumed).
T3 construct: also called three CRD units (CRD1-CRD2-CRD3) of human CD137
In words: flow cytometry, yeast display [Cont.].

For a further experiment, the target named is T4, Hu_CRD3-CRD4 (human, UniProt Q07011 87-159, limits assumed).
T4 construct: also called two CRD units (CRD3-CRD4) of human CD137
Kind of experiment: flow cytometry, yeast display [Cont.].

Another experiment has as its target T5, Hu_GQ109AA (human, UniProt Q07011 18-255).
T5 construct: On HEK293F
Kind of experiment: flow cytometry, HEK293F.

Another experiment addresses T6, Hu_TN137AA (human, UniProt Q07011 18-255).
T6 construct: On HEK293F
Kind of experiment: flow cytometry, HEK293F.

For the next experiment, the target named is T7, Hu_EL111AA (human, UniProt Q07011 18-255).
T7 construct: On HEK293F
Kind of experiment: flow cytometry, HEK293F.

Experiment [2] has as its target T8, GITR overexpressed on HEK293F cells (UniProt Q9Y5U5 26-241, limits assumed).
T8 construct: whole, on cells
T8 sequence (looked up): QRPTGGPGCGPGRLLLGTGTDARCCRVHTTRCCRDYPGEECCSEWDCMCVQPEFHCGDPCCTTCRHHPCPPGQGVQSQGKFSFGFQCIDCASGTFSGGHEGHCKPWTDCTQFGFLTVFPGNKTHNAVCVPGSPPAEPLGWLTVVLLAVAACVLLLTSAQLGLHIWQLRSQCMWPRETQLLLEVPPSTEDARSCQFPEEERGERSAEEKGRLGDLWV
In words: flow cytometry, HEK293F cells expressing the receptor, antibody 100 nM [Cont.].

Experiment [3] has as its target T9, OX40 overexpressed on HEK293F cells (UniProt P43489 29-277, limits assumed).
T9 construct: whole, on cells
T9 sequence (looked up): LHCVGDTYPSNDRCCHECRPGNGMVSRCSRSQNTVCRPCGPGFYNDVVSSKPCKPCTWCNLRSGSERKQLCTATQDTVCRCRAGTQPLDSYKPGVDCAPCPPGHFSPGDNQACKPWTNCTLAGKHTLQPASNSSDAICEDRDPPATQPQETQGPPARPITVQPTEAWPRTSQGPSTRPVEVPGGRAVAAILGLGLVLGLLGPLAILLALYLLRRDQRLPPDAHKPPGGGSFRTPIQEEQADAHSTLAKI
The experiment is described as above.

Experiment [4] concerns the target T10, CD40 overexpressed on HEK293F cells (UniProt P25942 21-277, limits assumed).
T10 construct: whole, on cells
The description is as above.

In experiment [5] the target is T11, CD27 overexpressed on HEK293F cells (UniProt P26842 20-260, limits assumed).
T11 construct: whole, on cells
T11 sequence (looked up): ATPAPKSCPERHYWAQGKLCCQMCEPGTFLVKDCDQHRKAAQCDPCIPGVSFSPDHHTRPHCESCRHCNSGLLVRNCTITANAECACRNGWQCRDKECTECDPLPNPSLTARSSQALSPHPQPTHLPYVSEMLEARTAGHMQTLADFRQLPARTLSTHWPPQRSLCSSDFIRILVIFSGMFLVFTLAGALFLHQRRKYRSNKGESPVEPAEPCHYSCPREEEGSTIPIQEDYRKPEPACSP
The experiment is described as above.

Experiment [6] has as its target T12, human CD137 fused with human FC fragment (human, UniProt Q07011 24-186, limits assumed).
T12 construct: may be the same reagent as CD137-hisFc; also called human CD137 (FC fusion protein); not shown: human Fc fragment
Kind of experiment: ELISA, coated CD137-Fc.

The target of experiment [7] is T13, monkey CD137 fused with human FC fragment (cynomolgus monkey, UniProt Q07011 24-179 (human entry), limits assumed).
T13 construct: also called Cyno CD137-Fc; not shown: human Fc fragment
T13 chain: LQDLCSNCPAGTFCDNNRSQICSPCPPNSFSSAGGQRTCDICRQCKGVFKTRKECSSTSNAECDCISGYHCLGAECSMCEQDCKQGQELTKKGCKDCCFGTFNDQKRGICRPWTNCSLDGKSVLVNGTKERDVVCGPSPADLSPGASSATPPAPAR
In words: ELISA, coated CD137-Fc.

Experiment [8] concerns the target T14, full-length mouse CD137 on the cell surface (mouse, UniProt P20334 24-178).
T14 sequence: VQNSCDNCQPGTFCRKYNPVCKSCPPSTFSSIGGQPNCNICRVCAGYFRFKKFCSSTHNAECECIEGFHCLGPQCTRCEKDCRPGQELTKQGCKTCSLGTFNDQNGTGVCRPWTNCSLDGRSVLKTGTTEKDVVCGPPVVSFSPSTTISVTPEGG
Kind of experiment: flow cytometry, yeast display.

The target of experiment [9] is T15, full-length human CD137 on the cell surface (human, UniProt Q07011 18-255).
T15 construct: also called Human WT
Kind of experiment: flow cytometry, yeast display.

The next experiment concerns the target T16, Hu_CRD2 (human, UniProt Q07011 46-86, limits assumed).
T16 construct: also called human CD137 CRD2
T16 chain: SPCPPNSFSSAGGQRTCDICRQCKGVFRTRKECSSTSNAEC
Kind of experiment: flow cytometry, yeast display.

Experiment [10] addresses T17, CD137-hisFc fusion protein (Sino Biological Cat 10041-H03H) (human, UniProt Q07011 24-186).
T17 construct: Bought; also called recombinant human CD137 (fused with human Fc and His tag); not shown: His tag and human Fc
Kind of experiment: competition ELISA, human CD137-Fc-His coated, biotinylated CD137L as blocked ligand, neutravidin-HRP.

T6 sequence (Q07011 18-255 T137A/N138A): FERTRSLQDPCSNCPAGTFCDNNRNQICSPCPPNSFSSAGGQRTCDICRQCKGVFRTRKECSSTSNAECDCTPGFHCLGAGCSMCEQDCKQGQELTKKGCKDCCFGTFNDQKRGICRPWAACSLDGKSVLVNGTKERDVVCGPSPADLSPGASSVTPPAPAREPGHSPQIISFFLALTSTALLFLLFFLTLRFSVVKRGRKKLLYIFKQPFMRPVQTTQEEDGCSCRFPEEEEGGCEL
T7 sequence (Q07011 18-255 E111A/L112A): as the sequence (Q07011 18-255 T137A/N138A) above, with E94A, L95A, A120T, A121N counted along it
T5 sequence (Q07011 18-255 G109A/Q110A): as the sequence (Q07011 18-255 T137A/N138A) above, with G92A, Q93A, A120T, A121N counted along it
T10 sequence (P25942 21-277 limits assumed): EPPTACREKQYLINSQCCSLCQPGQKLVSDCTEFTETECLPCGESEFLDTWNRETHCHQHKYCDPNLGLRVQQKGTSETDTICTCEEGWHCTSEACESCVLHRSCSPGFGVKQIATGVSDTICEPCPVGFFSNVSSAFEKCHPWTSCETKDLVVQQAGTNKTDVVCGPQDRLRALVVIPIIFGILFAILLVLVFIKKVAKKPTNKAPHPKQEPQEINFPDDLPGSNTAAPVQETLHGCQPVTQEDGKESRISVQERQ

B1: AG10059 (antibody, human IgG4 S228P, kappa, V domains shown)
VH: EVQLVESGGGLVQPGGSLRLSCAASGYSITSGHYWAWIRQAPGKGLEWVSSISGYGSTTYYADSVKGRFTISRDNSKNTLYLQLNSLRAEDTAVYYCARGGSDAVLGDWFAYWGQGTLVTVSS
VL: DIQLTQSPSSLSASVGDRVTITCRASQGIGSFLAWYQQKPGKAPKLLIYDASNLETGVPSRFSGSGSGTDFTLTISSLQPEDFATYYCQQGYYLWTFGQGTKVEIKR
On to B1, for which the results for the Kd in [1], in experiment [6] and in experiment [7] were 38 nM, 0.8 nM and 0.4 nM, respectively. Moreover, the koff in experiment [1] was found to be 0.0063 s⁻¹. Besides, the kon in experiment [1] came out at 160000 M⁻¹ s⁻¹. Besides, the “% in upper right quadrant” value was 0.25% with Hu_CRD2-CRD3-CRD4; 49.4% in the experiment with Hu_CRD1-CRD2-CRD3; 0.39% with Hu_CRD3-CRD4; 0.44% in [8]; 25.9% in experiment [9]; 0.2% with Hu_CRD2. The Mean with Hu_CRD2-CRD3-CRD4 is 14900; with Hu_CRD1-CRD2-CRD3, 15100; in the experiment with Hu_CRD3-CRD4, 11700; in experiment [2], 5980; in [3] it was 6780; in experiment [4], 7260. In addition, the Mean in [5] stood at 13200; in [8], 9890; in [9] it was 58600; with Hu_CRD2, 6280. For the same molecule, the binding result with Hu_GQ109AA, with Hu_TN137AA and in the experiment with Hu_EL111AA was “binds” throughout. Moreover, the “IC50 (read off the curve)” value in experiment [10] is around 100 nM.

B2: AG10058 (antibody, human IgG4 S228P, kappa, V domains shown)
VH: EVQLVESGGGLVQPGGSLRLSCAASGFSLSTSGVGVGWIRQAPGKGLEWLALIDWDDDKYYSPSLKSRLTISRDNSKNTLYLQLNSLRAEDTAVYYCARGGSDTVLGDWFAYWGQGTLVTVSS
VL: DIQLTQSPSSLSASVGDRVTITCRASQSVSPYLAWYQQKPGKAPKLLIYDASSLESGVPSRFSGSGSGTDFTLTISSLQPEDFATYYCQQGYSLWTFGQGTKVEIKR
Regarding B2, the Kd in experiment [1] was 5.9 nM; in [6], 0.2 nM; in [7], 0.3 nM. Moreover, the koff in [1] was 0.0024 s⁻¹. Also, in [1], the kon was found to be 410000 M⁻¹ s⁻¹. The “% in upper right quadrant” value was 0.91% with Hu_CRD2-CRD3-CRD4; 55.6% with Hu_CRD1-CRD2-CRD3; 0.19% with Hu_CRD3-CRD4; 41.1% in [8]; 30.7% in experiment [9]; 0.24% in the experiment with Hu_CRD2. The Mean with Hu_CRD2-CRD3-CRD4 was 7680; in the experiment with Hu_CRD1-CRD2-CRD3 it was 20000; in the experiment with Hu_CRD3-CRD4 it was 18200; in experiment [8], 12600; in experiment [9], 64700; in the experiment with Hu_CRD2, 13200. Besides, the binding result with Hu_GQ109AA, in the experiment with Hu_TN137AA and with Hu_EL111AA was “binds” each time. The “IC50 (read off the curve)” value in experiment [10] was around 40 nM.
